Data: PMC5576896 (Cell reports, 2016)
Positions count from the first letter of the chain named.

T1: RECQL4-KM-3XFLAG (human, UniProt O94761 1-1208, lysine 508 replaced with methionine (RECQL4-KM))
T1 sequence (looked up): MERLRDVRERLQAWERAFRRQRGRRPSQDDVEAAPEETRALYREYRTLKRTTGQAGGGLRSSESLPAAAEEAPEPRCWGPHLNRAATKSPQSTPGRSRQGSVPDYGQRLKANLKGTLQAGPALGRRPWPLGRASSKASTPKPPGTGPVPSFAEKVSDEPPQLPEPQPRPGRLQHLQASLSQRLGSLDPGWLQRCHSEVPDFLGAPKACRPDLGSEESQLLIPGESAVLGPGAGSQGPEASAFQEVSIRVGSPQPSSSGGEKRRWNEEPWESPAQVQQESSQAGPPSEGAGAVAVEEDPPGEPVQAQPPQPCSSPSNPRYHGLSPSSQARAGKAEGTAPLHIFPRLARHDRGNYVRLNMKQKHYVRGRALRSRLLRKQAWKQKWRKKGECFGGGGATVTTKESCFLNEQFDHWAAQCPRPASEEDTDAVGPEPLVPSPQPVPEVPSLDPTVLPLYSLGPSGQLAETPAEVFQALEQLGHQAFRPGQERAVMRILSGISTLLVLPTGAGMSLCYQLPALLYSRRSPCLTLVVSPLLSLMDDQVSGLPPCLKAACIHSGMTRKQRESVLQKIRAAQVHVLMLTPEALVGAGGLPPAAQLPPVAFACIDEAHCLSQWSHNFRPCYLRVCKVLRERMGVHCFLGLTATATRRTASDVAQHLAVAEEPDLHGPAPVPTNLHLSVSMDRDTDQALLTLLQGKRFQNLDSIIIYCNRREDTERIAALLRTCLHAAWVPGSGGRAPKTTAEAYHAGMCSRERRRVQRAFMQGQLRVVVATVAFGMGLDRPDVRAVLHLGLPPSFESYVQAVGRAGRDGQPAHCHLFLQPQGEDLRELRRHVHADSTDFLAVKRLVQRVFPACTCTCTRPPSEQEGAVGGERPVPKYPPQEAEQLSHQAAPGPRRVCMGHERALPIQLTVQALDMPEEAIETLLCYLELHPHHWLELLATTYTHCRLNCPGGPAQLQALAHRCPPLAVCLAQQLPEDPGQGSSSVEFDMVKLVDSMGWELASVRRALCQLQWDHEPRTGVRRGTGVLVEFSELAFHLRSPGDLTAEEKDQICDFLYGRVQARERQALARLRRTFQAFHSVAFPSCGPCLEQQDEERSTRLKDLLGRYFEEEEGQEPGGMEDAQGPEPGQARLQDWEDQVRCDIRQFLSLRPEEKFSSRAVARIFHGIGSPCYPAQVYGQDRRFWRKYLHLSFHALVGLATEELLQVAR

T2: purified RECQL4-3XFLAG (human, UniProt O94761 1-1208)
T2 sequence (looked up): T1 sequence (looked up) with M508K

B1: recombinant RECQL4 (natural protein, human, UniProt O94761 1-1208, looked up)
chain: T1 sequence (looked up) with M508K
B2: purified YFP-MRE11 (natural protein, human, UniProt P49959 1-708, looked up)
chain: MSTADALDDENTFKILVATDIHLGFMEKDAVRGNDTFVTLDEILRLAQENEVDFILLGGDLFHENKPSRKTLHTCLELLRKYCMGDRPVQFEILSDQSVNFGFSKFPWVNYQDGNLNISIPVFSIHGNHDDPTGADALCALDILSCAGFVNHFGRSMSVEKIDISPVLLQKGSTKIALYGLGSIPDERLYRMFVNKKVTMLRPKEDENSWFNLFVIHQNRSKHGSTNFIPEQFLDDFIDLVIWGHEHECKIAPTKNEQQLFYISQPGSSVVTSLSPGEAVKKHVGLLRIKGRKMNMHKIPLHTVRQFFMEDIVLANHPDIFNPDNPKVTQAIQSFCLEKIEEMLENAERERLGNSHQPEKPLVRLRVDYSGGFEPFSVLRFSQKFVDRVANPKDIIHFFRHREQKEKTGEEINFGKLITKPSEGTTLRVEDLVKQYFQTAEKNVQLSLLTERGMGEAVQEFVDKEEKDAIEELVKYQLEKTQRFLKERHIDALEDKIDEEVRRFRETRQKNTNEEDDEVREAMTRARALRSQSEESASAFSADDLMSIDLAEQMANDSDDSISAATNKGRGRGRGRRGGRGQNSASRGGSQRGRADTGLETSTRSRNSKTAVSASRNMSIIDAFKSTRQQPSRNVTTKNYSEVIEVDESDVEEDIFPTTSKTDQRWSSTSSSKIMSQSQVSKGVDFESSEDDDDDPFMNTSSLRRNRR
B3: recombinant CtIP (natural protein, human, UniProt Q99708 1-897, looked up)
chain: MNISGSSCGSPNSADTSSDFKDLWTKLKECHDREVQGLQVKVTKLKQERILDAQRLEEFFTKNQQLREQQKVLHETIKVLEDRLRAGLCDRCAVTEEHMRKKQQEFENIRQQNLKLITELMNERNTLQEENKKLSEQLQQKIENDQQHQAAELECEEDVIPDSPITAFSFSGVNRLRRKENPHVRYIEQTHTKLEHSVCANEMRKVSKSSTHPQHNPNENEILVADTYDQSQSPMAKAHGTSSYTPDKSSFNLATVVAETLGLGVQEESETQGPMSPLGDELYHCLEGNHKKQPFEESTRNTEDSLRFSDSTSKTPPQEELPTRVSSPVFGATSSIKSGLDLNTSLSPSLLQPGKKKHLKTLPFSNTCISRLEKTRSKSEDSALFTHHSLGSEVNKIIIQSSNKQILINKNISESLGEQNRTEYGKDSNTDKHLEPLKSLGGRTSKRKKTEEESEHEVSCPQASFDKENAFPFPMDNQFSMNGDCVMDKPLDLSDRFSAIQRQEKSQGSETSKNKFRQVTLYEALKTIPKGFSSSRKASDGNCTLPKDSPGEPCSQECIILQPLNKCSPDNKPSLQIKEENAVFKIPLRPRESLETENVLDDIKSAGSHEPIKIQTRSDHGGCELASVLQLNPCRTGKIKSLQNNQDVSFENIQWSIDPGADLSQYKMDVTVIDTKDGSQSKLGGETVDMDCTLVSETVLLKMKKQEQKGEKSSNEERKMNDSLEDMFDRTTHEEYESCLADSFSQAADEEEELSTATKKLHTHGDKQDKVKQKAFVEPYFKGDERETSLQNFPHIEVVRKKEERRKLLGHTCKECEIYYADMPAEEREKKLASCSRHRFRYIPPNTPENFWEVGFPSTQTCMERGYIKEDLDPCPRPKRRQPYNAIFSPKGKEQKT

Tests used:
[1] = molecular target: MRE11-RAD50-NBS1 complex (recombinant) (human, UniProt P49959 1-708; Q92878 1-1312; O60934 1-754); assay: co-IP
RECQL4-KM-3XFLAG = molecular target: T1, RECQL4-KM-3XFLAG; assay: pull-down
purified RECQL4-3XFLAG = molecular target: T2, purified RECQL4-3XFLAG; assay: pull-down
recombinant RECQL4 = molecular target: B1; assay: co-IP

Sequence of MRE11-RAD50-NBS1 complex (recombinant) (Q92878 whole entry, chain 2 of 2): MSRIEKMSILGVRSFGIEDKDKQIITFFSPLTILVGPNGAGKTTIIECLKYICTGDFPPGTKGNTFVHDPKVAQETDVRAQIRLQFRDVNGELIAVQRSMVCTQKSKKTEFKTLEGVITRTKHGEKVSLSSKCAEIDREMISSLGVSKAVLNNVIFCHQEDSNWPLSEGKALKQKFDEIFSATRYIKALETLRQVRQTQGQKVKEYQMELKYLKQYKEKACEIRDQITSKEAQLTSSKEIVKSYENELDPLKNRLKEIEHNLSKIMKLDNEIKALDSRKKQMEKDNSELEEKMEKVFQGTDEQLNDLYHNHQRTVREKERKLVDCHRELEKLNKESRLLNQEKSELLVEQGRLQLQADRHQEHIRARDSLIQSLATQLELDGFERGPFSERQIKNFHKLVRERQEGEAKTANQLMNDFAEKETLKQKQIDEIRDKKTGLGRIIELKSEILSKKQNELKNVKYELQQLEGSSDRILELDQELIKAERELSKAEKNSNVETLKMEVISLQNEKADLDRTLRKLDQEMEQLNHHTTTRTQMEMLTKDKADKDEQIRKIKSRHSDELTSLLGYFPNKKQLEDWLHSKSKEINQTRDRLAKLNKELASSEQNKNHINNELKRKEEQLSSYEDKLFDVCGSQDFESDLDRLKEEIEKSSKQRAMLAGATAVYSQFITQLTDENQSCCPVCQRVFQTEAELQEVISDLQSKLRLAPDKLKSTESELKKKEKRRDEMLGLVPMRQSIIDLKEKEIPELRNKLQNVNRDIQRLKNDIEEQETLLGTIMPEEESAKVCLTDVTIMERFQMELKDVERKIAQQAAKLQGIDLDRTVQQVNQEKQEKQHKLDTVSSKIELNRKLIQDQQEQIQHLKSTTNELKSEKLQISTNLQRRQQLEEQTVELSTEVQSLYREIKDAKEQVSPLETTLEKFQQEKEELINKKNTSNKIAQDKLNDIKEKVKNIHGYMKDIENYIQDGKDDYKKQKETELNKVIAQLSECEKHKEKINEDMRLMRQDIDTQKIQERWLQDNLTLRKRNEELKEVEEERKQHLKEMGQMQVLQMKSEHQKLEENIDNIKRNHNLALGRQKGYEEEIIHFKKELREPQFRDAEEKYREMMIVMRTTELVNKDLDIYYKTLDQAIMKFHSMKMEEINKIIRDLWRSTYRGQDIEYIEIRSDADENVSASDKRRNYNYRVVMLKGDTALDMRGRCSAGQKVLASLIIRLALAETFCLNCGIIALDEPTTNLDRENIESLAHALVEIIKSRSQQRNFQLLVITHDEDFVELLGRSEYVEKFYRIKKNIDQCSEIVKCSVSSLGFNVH
Sequence of MRE11-RAD50-NBS1 complex (recombinant) (O60934 whole entry, chain 3 of 2): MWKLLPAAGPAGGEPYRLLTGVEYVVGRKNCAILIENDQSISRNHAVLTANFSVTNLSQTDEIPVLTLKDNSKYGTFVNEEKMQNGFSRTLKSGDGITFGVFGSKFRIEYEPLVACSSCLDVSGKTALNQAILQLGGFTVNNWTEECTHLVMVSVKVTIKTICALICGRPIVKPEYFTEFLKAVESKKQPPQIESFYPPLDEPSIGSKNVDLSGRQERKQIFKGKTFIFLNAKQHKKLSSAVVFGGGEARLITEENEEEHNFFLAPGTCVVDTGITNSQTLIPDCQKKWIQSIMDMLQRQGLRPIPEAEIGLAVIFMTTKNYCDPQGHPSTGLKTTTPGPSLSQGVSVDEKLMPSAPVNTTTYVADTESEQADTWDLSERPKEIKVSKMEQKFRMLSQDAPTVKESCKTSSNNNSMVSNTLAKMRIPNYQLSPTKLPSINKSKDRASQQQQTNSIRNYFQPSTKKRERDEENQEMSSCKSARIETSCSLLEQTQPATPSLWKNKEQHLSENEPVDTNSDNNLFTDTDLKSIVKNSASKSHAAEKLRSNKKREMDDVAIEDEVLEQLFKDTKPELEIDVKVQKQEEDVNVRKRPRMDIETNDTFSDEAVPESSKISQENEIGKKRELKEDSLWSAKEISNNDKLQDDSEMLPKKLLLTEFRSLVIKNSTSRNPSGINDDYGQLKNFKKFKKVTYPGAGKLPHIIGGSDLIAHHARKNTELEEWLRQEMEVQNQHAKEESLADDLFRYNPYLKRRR

**Q.** Does B1 bind [1]?
**A.** Result: binds

**Q.** Does B2 bind (RECQL4-KM-3XFLAG)?
**A.** Result: binds

**Q.** Does B2 bind (purified RECQL4-3XFLAG)?
**A.** Result: binds

**Q.** Does B3 bind (recombinant RECQL4)?
**A.** Result: binds
